# Source: publication PMC7250496 (Journal of medicinal chemistry, 2020)
# Square brackets hold non-standard residues; d marks the D form. Dap = NC[C@H](N)C(=O)O
# Columns and labels:
# [1] = target: T1, mouse melanocortin 1 receptor (mouse, UniProt Q01727 1-315); assay: cell-based or functional assay
# [2] = target: T2, mouse melanocortin 3 receptor (mouse, UniProt P33033 1-323); assay: cell-based or functional assay
# [3] = target: T3, mouse melanocortin 4 receptor (mouse, UniProt P56450 1-332); assay: cell-based or functional assay
# T3 sequence (P56450 whole entry): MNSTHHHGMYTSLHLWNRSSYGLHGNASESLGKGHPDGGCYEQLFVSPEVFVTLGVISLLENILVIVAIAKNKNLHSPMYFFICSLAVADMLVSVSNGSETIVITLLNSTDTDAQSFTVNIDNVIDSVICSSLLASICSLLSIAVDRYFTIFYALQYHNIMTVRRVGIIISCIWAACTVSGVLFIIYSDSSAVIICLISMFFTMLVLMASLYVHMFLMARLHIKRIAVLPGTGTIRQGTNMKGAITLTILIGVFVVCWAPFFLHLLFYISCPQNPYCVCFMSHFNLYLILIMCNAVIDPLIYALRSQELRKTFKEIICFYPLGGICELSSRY
# [4] = target: T4, mouse melanocortin 5 receptor (mouse, UniProt P41149 1-325); assay: cell-based or functional assay
# T4 sequence (P41149 whole entry): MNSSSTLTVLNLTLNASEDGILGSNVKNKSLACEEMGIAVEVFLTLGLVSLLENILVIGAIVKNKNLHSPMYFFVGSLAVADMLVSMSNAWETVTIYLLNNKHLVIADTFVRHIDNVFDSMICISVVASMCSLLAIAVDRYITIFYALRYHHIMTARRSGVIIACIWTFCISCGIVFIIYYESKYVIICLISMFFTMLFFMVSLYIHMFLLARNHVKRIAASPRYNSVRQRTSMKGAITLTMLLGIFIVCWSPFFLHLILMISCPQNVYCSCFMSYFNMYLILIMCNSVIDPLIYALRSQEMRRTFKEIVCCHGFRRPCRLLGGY
# [5] = target: T1, mouse melanocortin 1 receptor; assay: radioligand binding
# [6] = target: T2, mouse melanocortin 3 receptor; assay: radioligand binding
# [7] = target: T3, mouse melanocortin 4 receptor; assay: radioligand binding
# [8] = target: T4, mouse melanocortin 5 receptor; assay: radioligand binding
# [9] = target: human melanocortin 4 receptor (human, UniProt P32245 1-332); assay: radioligand binding
# human melanocortin 4 receptor, sequence (P32245 whole entry): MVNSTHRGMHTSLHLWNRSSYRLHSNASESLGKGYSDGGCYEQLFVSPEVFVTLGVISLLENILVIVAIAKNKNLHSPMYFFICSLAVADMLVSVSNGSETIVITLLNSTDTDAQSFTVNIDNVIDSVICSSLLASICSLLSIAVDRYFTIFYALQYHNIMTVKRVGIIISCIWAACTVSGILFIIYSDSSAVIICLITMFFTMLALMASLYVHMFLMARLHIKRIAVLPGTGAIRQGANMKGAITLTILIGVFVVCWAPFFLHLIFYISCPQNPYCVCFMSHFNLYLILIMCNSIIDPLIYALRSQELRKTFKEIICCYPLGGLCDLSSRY
# T1 sequence (Q01727 whole entry): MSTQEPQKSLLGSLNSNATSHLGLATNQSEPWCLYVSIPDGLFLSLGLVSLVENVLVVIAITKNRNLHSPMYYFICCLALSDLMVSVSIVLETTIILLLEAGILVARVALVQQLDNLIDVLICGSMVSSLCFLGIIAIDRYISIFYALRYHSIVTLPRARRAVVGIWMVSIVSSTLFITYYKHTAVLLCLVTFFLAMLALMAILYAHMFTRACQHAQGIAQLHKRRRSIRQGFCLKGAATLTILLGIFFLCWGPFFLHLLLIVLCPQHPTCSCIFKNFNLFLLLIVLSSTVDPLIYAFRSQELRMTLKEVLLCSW
# T2 sequence (P33033 whole entry): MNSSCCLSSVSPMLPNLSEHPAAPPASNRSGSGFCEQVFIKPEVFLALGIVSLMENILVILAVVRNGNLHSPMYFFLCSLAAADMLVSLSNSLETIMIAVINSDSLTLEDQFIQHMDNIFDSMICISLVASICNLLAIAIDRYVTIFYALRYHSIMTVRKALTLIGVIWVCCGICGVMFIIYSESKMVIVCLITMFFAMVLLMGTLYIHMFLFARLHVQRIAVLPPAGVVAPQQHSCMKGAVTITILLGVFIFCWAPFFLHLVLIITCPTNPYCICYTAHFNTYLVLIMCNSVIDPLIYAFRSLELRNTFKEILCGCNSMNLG
"agonist activity, cAMP AlphaScreen, HEK293 cells stably expressing the receptor [1]","agonist activity, cAMP AlphaScreen, HEK293 cells stably expressing the receptor [2]","agonist activity, cAMP AlphaScreen, HEK293 cells stably expressing the receptor [3]","agonist activity, cAMP AlphaScreen, HEK293 cells stably expressing the receptor [4] [µM]",IC50 [5] [µM],IC50 [6] [µM],IC50 [7] [µM],IC50 [8] [µM],IC50 [9] [µM],Binder
56 % of maximal NDP-MSH response at 100 μM,> 100 µM,> 100 µM,> 100,25,15,1,12,2.7,cyclo(PHFF[Dap]AF[dP]) [c[Pro-His-Phe-Phe-Dap-Ala-Phe-DPro]]
4 µM,29 % of maximal NDP-MSH response at 100 μM,42 % of maximal NDP-MSH response at 100 μM,> 100,33,49,10,> 100,15.7,cyclo(PCFF[Dap]AF[dP]) [c[Pro-Cys-Phe-Phe-Dap-Ala-Phe-DPro]]
,,,,9,,,,,cyclo(PRFFNAF[dP]) [c[Pro-Arg-Phe-Phe-Asn-Ala-Phe-DPro]]
23 % of maximal NDP-MSH response at 100 μM,> 100 µM,16 % of maximal NDP-MSH response at 100 μM,> 100,15,53,0.038,29,0.25,cyclo(PRFFNVF[dP]) [c[Pro-Arg-Phe-Phe-Asn-Val-Phe-DPro]]
23 % of maximal NDP-MSH response at 100 μM,> 100 µM,> 100 µM,> 100,> 100,> 100,6.7,> 100,22,cyclo(PHFFNAF[dP]) [c[Pro-His-Phe-Phe-Asn-Ala-Phe-DPro]]
46 % of maximal NDP-MSH response at 100 μM,> 100 µM,> 100 µM,,24.6,> 100,1.9,> 100,19.3,cyclo(PCFFNAF[dP]) [c[Pro-Cys-Phe-Phe-Asn-Ala-Phe-DPro]]
> 100 µM,> 100 µM,> 100 µM,,> 100,> 100,2,> 100,14.3,cyclo(PRYFNAF[dP]) [c[Pro-Arg-Tyr-Phe-Asn-Ala-Phe-DPro]]
48 % of maximal NDP-MSH response at 100 μM,> 100 µM,> 100 µM,> 100,18,28,0.134,36,1.02,cyclo(PRYF[Dap]AF[dP]) [c[Pro-Arg-Tyr-Phe-Dap-Ala-Phe-DPro]]
,,,,5.2,3.2,,1.7,,PRFFXAFP (Dap (diaminopropionic acid) at position 5 (X in the letters); DPro at position 8; head-to-tail cyclised (macrocycle)) [c[Pro-Arg-Phe-Phe-Dap-Ala-Phe-DPro]]
79 % of maximal NDP-MSH response at 100 μM,27 % of maximal NDP-MSH response at 100 μM,37 % of maximal NDP-MSH response at 100 μM,> 100,8,10,,2.7,0.0322,cyclo(PRFF[Dap]VF[dP]) [c[Pro-Arg-Phe-Phe-Dap-Val-Phe-DPro]]
